Here are results for one protein from patent publication US20090061444A1 (WISCONSIN ALUMNI RESEARCH FOUNDATION, published 2009).

The data set concerns the molecule itself. The experiment in a line: size exclusion chromatography (Superose 6), non-denaturing; self-association. On the procedure: Size Exclusion Chromatography. Size exclusion chromatography (SEC) was performed by FPLC using a 24 ml Superose 6 (S6) column (GE Healthcare, Pittsburgh, Pa.). The chromoproteins (100 μl of a 5 mg/ml sample) were first purified through the phenyl HP step, dissolved in 30 mM Tris-HCl (pH 8.0) and 200 mM NaCl, and either loaded onto the column as Pr or immediately following saturating irradiation of the sample with red light (630 nm). Absorption spectra were recorded before and after SEC to verify that the chromoproteins remained enriched in the desired states (Pr or Pfr).
SEC has shown that most, if not all, Phys are dimeric with their binding interface(s) involving one or more regions, including the GAF domain in DrBphP, the PAS-GAF-PHY domain in Syn-Cph1, and the C-terminal HK and HK-related regions in microbial and higher plants Phys. […] Whereas the GAF domain alone as Pr behaved as a monomer of 22 kDa, consistent with its calculated molecular mass of 23.3 kDa, the GAF-PHY fragment behaved as a dimer species at 105-kDa, nearly twice the size of its calculated mass of 48.4 kDa (FIG. 23). […] The predicted molecular masses of monomeric SyB-Cph1 (GAF) and SyB-Cph1 (GAF-PHY) polypeptides are 23.3 kDa and 48.4 kDa, respectively, while the apparent molecular masses measured by SEC are 22 and 106 kDa, respectively.
(SEC sorts molecules by how far they enter the pores of the column.)

B1: SyB-Cph1 (GAF) chromoprotein assembled with PCB (other)
chain: MDTETWAAAARPSRDALINRITHQIRQSLELDQILRATVEEVRAFLGTDRVKVYRFDPEGHGTVVAEARGGERLPSLLGLTFPAGDIPEEARRLFRLAQVRVIVDVEAQSRSISQPESWGLSARVPLGEPLQRPVDPCHVHYLKSMGVASSLVVPLMHHQELWGLLVSHHAEPRPYSQEELQVVQLLADQVSIAIAQAELHHHHHH
modifications: phycocyanobilin (PCB) covalently bound at Cys-138
notes: It ran as a monomer on SEC, both as Pr and after saturating red light; also called CYB GAF; BG
Regarding B1, the binding result is on record as “no binding (tested: 100 µl of a 5 mg/ml sample loaded)”.
